This passage reports Kd results from article PMC3024764 (The Journal of Biological Chemistry, 2010).

For this test, the target named is Pim-1 kinase (SPR analysis) (UniProt P11309 1-313). Briefly: SPR. In general terms: In SPR one partner is held on a chip, and binding of the other changes the refractive index at the surface.
Chain of Pim-1 kinase (SPR analysis) (P11309 whole entry): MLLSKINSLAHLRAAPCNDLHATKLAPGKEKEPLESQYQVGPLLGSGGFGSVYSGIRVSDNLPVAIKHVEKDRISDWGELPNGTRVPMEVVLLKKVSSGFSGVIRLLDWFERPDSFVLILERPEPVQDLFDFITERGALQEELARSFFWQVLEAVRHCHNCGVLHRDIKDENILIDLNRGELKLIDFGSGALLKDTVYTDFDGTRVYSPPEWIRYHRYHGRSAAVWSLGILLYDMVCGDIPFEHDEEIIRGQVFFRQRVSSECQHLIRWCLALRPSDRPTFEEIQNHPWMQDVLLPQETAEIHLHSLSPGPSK

Usually Kd stands for the equilibrium constant for the complex coming apart. A higher Kd goes with a looser complex. RRRRRRRRKKPGLDRDQT [R8-T198mu peptide] showed a Kd of 4.25 µM.
